The text below walks through data of PMC3585124, “The Interaction of CtIP and Nbs1 Connects CDK and ATM to Regulate HR–Mediated Double-Strand Break Repair” (PLoS Genetics, 2013).

For one test, the target named is Nbs1 1-335 (UniProt O60934). The test can be described thus: co-expression, GST pull-down, anti-Flag blot. Particulars: reference: wild-type 200-600 fragment.
The target of the next test is BRCA1 (UniProt P38398). Put plainly: co-immunoprecipitation, HA-CtIP and Myc-BRCA1. Particulars: reference: wild type; sites S327.
Test [1] concerns the target T1, GST-CtIP-His (purified CtIP-WT) (human, UniProt Q99708 1-897, phosphorylated by CDKs when expressed in insect cells (sites in Table S2)).
T1 construct: CtIP, human; also called GST-CtIP WT
The test can be described thus: pull-down; purified Nbs1(1–335) or Nbs1(1–335)-RRHK incubated with purified CtIP-WT or CtIP-12A-CDK coupled to glutathione agarose beads; Western blot with anti-His and anti-GST. Particulars: both partners purified.

T1 sequence (Q99708 whole entry): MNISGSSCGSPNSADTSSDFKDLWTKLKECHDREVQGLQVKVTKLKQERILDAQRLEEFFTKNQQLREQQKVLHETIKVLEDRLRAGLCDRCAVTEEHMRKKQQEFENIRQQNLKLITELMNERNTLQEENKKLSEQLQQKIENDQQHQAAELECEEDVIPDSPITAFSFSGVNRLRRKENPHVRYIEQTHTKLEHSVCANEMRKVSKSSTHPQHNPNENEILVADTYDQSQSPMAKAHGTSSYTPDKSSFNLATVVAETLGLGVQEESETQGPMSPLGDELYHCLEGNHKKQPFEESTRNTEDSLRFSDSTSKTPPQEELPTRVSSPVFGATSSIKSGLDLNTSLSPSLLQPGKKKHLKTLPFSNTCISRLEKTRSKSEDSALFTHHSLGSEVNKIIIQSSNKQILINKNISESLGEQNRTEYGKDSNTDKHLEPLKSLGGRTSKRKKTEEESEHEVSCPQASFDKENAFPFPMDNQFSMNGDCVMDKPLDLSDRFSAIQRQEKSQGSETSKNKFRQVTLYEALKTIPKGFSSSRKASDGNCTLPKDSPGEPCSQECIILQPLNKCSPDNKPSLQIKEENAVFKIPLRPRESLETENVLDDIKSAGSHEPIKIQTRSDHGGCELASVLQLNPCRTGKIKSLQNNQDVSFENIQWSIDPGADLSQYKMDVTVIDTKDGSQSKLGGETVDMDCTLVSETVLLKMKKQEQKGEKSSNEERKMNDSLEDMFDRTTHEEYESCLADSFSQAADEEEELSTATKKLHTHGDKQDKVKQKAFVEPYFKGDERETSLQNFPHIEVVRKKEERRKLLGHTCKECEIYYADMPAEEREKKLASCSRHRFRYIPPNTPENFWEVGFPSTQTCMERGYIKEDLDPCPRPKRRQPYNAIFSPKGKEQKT

“CtIP 200-600 (from UniProt Q99708) 5A-CDK”: in the test with Nbs1 1-335 (sites S233,T245,S276,T315,S347), the “binding against the reference” value is recorded as “lost”.

On to “CtIP 200-600 (from UniProt Q99708) S233A/T245A/S276A (printed S233A/S245A/S276A)”, for which the “binding against the reference” value in the test with Nbs1 1-335 (sites S233,T245,S276) is “weaker”.

With “CtIP 200-600 (from UniProt Q99708) T245A/S276A/S347A”, the “binding against the reference” value with Nbs1 1-335 (sites T245,S276,S347) is “weaker”.

As to “CtIP 200-600 (from UniProt Q99708) T315A/S347A”, the “binding against the reference” value with Nbs1 1-335 (sites T315,S347) was “weaker”.

As to CtIP (from UniProt Q99708) S327A, the “binding against the reference” value with BRCA1 was “weaker”.

B1: Purified Nbs1(1–335) (domain or fragment, human, UniProt O60934 1-335, looked up)
chain: MWKLLPAAGPAGGEPYRLLTGVEYVVGRKNCAILIENDQSISRNHAVLTANFSVTNLSQTDEIPVLTLKDNSKYGTFVNEEKMQNGFSRTLKSGDGITFGVFGSKFRIEYEPLVACSSCLDVSGKTALNQAILQLGGFTVNNWTEECTHLVMVSVKVTIKTICALICGRPIVKPEYFTEFLKAVESKKQPPQIESFYPPLDEPSIGSKNVDLSGRQERKQIFKGKTFIFLNAKQHKKLSSAVVFGGGEARLITEENEEEHNFFLAPGTCVVDTGITNSQTLIPDCQKKWIQSIMDMLQRQGLRPIPEAEIGLAVIFMTTKNYCDPQGHPSTGLKT
notes: also called Nbs1-WT-N; source: Sf9 insect cells, purified (Ni-NTA column followed by MonoQ column); not shown: His, C-terminal, kept
Consider B1, for which the binding result in test [1] is reported as “binds”.
